Assay results taken from doi:10.1101/2025.02.13.638205, “Cryo-EM structure of endogenous Plasmodium falciparum Pfs230 and Pfs48/45 fertilization complex” (bioRxiv, 2025).

Legend:
[1] = molecular target: Pfs230, endogenous, in fixed NF54/iGP2 stage V gametocytes (Plasmodium falciparum (endogenous in …, UniProt P68874)); assay: immunostaining of cells or tissue; settings: one partner purified
[2] = molecular target: recombinant Pfs230 D11D12 (D2446-T2818) (Plasmodium falciparum 3D7, UniProt P68874); assay: BLI; settings: both partners purified
Chain of recombinant Pfs230 D11D12 (D2446-T2818) (P68874 2446-2818, one chain of several): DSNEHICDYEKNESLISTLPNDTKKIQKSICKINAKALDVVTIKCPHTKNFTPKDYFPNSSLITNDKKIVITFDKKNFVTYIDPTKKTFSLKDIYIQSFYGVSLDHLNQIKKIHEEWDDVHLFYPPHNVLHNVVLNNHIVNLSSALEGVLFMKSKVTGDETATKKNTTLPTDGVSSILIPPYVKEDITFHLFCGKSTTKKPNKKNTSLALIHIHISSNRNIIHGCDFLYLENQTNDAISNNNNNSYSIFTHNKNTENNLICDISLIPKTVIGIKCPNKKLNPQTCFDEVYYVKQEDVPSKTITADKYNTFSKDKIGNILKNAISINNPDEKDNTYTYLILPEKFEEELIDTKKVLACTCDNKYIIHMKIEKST

[3] = molecular target: recombinant Pfs230 D5D6 (T1281-G1549) (Plasmodium falciparum 3D7, UniProt P68874); assay: BLI; settings: both partners purified
Chain of recombinant Pfs230 D5D6 (T1281-G1549) (P68874 1281-1549): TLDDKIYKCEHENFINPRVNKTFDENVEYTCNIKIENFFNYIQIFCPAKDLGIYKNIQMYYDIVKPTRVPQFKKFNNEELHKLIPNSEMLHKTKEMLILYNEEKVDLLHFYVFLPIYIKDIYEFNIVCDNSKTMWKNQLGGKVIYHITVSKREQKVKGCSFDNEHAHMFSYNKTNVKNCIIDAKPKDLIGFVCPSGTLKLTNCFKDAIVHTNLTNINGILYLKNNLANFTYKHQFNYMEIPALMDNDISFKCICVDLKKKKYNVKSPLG

recombinant Pfs230 D1D2 = recombinant Pfs230 D1D2 (Plasmodium falciparum 3D7/NF54, UniProt P68874); assay: BLI; settings: both partners purified
[4] = molecular target: T1, Pfs48/45, endogenous, from P. falciparum stage V gametocytes (Plasmodium falciparum NF54 (NF54/iGP2 …)); assay: pull-down; settings: one partner purified
T1 construct: Pfs48/45 of Plasmodium falciparum, three 6-cysteine domains (D1-D3), migrates at about 50 kDa; residues 28-428 fitted in the cryo-EM model; also called P48/45; source: endogenous, P. falciparum NF54/iGP2 Pfs230FL stage V gametocytes; co-purified with Pfs230 (StrepTactin XT, SEC) and in parasite lysate
T1 chain: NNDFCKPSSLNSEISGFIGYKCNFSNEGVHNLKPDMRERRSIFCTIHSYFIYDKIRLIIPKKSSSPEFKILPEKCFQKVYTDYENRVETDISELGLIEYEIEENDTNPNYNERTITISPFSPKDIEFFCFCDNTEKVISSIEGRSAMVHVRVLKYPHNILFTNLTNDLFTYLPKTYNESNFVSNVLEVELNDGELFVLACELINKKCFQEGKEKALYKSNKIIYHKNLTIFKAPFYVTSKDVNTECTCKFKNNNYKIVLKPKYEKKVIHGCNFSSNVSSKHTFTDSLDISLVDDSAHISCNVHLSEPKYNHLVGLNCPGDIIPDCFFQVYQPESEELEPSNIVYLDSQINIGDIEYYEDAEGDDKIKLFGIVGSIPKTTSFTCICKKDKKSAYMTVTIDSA

Chain of Pfs230, endogenous, in fixed NF54/iGP2 stage V gametocytes (Plasmodium falciparum (P68874 21-3135): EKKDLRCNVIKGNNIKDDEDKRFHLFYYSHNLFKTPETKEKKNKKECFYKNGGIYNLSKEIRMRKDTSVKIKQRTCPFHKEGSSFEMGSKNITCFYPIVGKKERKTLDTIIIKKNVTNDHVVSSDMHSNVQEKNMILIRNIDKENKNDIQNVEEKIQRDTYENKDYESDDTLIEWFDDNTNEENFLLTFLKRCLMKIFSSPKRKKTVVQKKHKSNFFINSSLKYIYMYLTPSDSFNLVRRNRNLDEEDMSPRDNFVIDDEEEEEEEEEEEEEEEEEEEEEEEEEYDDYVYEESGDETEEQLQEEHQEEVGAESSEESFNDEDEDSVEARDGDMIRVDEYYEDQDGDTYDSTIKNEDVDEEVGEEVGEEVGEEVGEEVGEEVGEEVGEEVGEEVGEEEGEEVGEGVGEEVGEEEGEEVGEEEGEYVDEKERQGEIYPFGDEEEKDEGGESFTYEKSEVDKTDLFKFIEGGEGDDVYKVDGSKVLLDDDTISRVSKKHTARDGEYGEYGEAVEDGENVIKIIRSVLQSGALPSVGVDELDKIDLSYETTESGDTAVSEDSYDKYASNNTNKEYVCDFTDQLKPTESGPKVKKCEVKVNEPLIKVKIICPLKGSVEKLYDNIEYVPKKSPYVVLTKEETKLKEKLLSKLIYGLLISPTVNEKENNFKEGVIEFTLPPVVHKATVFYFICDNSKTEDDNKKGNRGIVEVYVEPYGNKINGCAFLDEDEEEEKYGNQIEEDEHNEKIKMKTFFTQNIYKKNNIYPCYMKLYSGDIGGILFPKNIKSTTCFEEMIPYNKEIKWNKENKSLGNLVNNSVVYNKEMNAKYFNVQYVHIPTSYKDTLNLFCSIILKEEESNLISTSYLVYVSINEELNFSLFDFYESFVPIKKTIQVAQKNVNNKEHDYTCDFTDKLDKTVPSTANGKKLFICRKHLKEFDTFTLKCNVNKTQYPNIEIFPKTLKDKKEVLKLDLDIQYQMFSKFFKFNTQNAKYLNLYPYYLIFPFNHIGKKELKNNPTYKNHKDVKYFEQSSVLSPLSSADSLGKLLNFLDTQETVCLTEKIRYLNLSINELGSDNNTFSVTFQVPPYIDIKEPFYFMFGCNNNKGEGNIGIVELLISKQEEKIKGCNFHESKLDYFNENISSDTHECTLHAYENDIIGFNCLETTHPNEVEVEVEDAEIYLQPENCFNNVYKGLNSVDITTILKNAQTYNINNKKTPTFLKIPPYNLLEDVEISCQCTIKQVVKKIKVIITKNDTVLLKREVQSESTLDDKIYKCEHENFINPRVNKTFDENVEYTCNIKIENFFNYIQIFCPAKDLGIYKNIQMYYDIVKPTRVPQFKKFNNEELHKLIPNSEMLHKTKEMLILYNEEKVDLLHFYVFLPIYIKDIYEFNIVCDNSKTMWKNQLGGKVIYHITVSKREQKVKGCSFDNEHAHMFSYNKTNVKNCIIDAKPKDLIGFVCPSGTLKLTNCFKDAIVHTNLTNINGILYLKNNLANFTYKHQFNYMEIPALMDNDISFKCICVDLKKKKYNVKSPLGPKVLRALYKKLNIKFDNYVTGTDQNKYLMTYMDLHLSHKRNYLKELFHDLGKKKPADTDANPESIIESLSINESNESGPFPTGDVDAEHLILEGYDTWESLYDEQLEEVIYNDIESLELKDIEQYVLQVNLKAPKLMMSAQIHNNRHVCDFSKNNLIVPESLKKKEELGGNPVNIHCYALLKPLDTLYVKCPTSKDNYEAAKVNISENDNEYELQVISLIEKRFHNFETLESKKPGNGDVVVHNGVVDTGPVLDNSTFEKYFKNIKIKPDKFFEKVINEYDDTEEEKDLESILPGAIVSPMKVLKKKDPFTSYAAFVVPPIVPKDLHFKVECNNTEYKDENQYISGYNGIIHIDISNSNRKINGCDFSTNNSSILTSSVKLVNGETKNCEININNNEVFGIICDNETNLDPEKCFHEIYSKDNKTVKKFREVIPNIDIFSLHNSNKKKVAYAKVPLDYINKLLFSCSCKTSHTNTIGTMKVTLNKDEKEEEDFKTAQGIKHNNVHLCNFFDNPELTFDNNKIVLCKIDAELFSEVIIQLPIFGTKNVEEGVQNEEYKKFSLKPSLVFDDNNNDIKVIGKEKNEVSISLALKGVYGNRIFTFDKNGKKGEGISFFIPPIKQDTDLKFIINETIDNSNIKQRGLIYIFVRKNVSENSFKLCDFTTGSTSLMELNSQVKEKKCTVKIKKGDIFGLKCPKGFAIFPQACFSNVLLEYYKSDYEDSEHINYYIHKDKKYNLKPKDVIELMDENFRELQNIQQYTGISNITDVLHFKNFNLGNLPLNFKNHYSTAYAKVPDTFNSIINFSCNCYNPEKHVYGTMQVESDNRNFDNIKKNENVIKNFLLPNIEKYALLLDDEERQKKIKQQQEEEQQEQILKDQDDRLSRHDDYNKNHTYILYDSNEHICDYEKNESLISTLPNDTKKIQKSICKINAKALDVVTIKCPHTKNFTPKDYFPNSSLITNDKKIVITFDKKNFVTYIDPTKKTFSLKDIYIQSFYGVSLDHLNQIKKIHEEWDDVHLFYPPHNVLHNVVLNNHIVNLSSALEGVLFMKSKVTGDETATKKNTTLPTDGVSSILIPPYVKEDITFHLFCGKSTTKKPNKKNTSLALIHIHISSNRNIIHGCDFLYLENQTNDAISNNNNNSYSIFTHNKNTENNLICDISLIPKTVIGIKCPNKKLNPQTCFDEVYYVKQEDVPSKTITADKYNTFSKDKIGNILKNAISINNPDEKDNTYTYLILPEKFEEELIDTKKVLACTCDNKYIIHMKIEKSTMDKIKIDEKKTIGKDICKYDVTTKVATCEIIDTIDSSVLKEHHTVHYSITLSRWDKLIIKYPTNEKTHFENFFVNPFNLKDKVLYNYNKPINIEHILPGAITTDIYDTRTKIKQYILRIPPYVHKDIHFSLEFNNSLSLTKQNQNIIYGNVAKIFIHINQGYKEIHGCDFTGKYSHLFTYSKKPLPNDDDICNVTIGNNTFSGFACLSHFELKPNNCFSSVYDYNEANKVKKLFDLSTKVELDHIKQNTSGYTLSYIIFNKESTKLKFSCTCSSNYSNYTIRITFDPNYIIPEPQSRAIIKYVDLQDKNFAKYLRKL

B1: nanobody W2812 (VHH)
VHH: QVQLQESGGGLVQPGGSLRLSCAASGRTFSSYMMAWFRQSQGNERELVAGLTRSGVSAYYADSVKGRFTISRDNAKNTVYLQMNSLKPKDTAVYYCAAASTTYINHIYTNPSNYPHWGPGTQVTVSS
[1]
  binding result: binds
[2]
  binding result: no binding (tested: 100 nM)
[3]
  binding result: no binding (tested: 100 nM)
Recombinant Pfs230 D1D2
  binding result: no binding (tested: 100 nM)

B2: nanobody W2809 (VHH)
VHH: QVQLQESGGGLVQAGGSLRLSCAASEHTFRDYAMGWFRQAPGKEREFVAAISWSGSIKYYADSVKGRFTISRDNAKRTQYLQMSSLKPEDTAVYYCAARWPGGGMWYEPPYDYWGQGTQVTVSS
[2]
  binding result: no binding
[3]
  binding result: no binding
Recombinant Pfs230 D1D2
  binding result: no binding

B3: nanobody W2810 (VHH)
VHH: QVQLQESGGGLVQAGGSLRLSCAASGRTFSSYAMGWFHQAPGKEREFVASISWSGGSIRYADSVKGRFTVSRDNAKNTAYLQMNSLKPEDTGVYYCAAGPYSSDYGGFGSWGQGTQVTVSS
[1]
  binding result: binds
[2]
  binding result: no binding (tested: 100 nM)
[3]
  binding result: no binding (tested: 100 nM)
Recombinant Pfs230 D1D2
  binding result: no binding (tested: 100 nM)

B4: anti-Pfs48/45 monoclonal antibody TB31F (antibody, V domains shown)
VH: EVQLVQSGGGLVQPGGSLRLSCAASGFTFNNYWMSWVRQAPGKGLEWVSSISNIGGTIYYPDSVKGRFTISRDNSKNTLYLQMNSLRAEDTAVYYCTRDLRMSDYFDYWGQGTMVTVSS
VL: NFMLTQPHSVSESPGKTVTISCTRSTGNIGSNYVSWYQQRPGSSPTTVIYRDDQRPSGVPDRFSGSIDRSSNSASLTISGLKTEDEADYYCHSYSTGMYIFGGGTKLTVL
[4]
  binding result: binds
